From article PMC4259882

What was measured:
FadR K113 (W60G) [1] = biological target: T1, FadR K113 (W60G) (Escherichia coli strain K113, UniProt P0A8V6 1-239, W60G); assay: EMSA; up to 2 pmol protein; Roche DIG gel shift binding buffer (composition not stated), 15 min, room temperature; 0.1 pmol (Fig. 3) or 0.2 pmol (Fig. 6) probe; 7-7.5% native PAGE
FadR WT [2] = biological target: T2, FadR WT (Escherichia coli K12, UniProt P0A8V6 1-239); assay: EMSA; Roche DIG gel shift binding buffer (composition not stated), 15 min, room temperature; 0.1 pmol (Fig. 3) or 0.2 pmol (Fig. 6) probe; 7-7.5% native PAGE
FadR F74G/W75G = FadR F74G/W75G (Escherichia coli K12, UniProt P0A8V6 1-239, F74G;W75G); assay: EMSA; up to 10 pmol protein; Roche DIG gel shift binding buffer (composition not stated), 15 min, room temperature; 0.1 pmol (Fig. 3) or 0.2 pmol (Fig. 6) probe; 7-7.5% native PAGE
FadR K113 (W60G) [3] = biological target: T1, FadR K113 (W60G); assay: as above
FadR W75G = FadR W75G (Escherichia coli K12, UniProt P0A8V6 1-239, W75G); assay: as above
FadR F74G = FadR F74G (Escherichia coli K12, UniProt P0A8V6 1-239, F74G); assay: as above
FadR WT [4] = biological target: T2, FadR WT; assay: EMSA; dose-dependent, 0.05-10 pmol protein; Roche DIG gel shift binding buffer (composition not stated), 15 min, room temperature; 0.1 pmol (Fig. 3) or 0.2 pmol (Fig. 6) probe; 7-7.5% native PAGE

B1: fabA probe (dsDNA)
DNA 1: TTTATTCCGAACTGATCGGACTTGTTCAGCGTACACGTGTTAGCTATCCTGCGTGC
DNA 2: GCACGCAGGATAGCTAACACGTGTACGCTGAACAAGTCCGATCAGTTCGGAATAAA
- binding result (FadR K113 (W60G) [1]): no binding
- binding result (FadR WT [2]): binds

B2: fadBA probe (dsDNA)
DNA 1: ACTTCGACTCATCTGGTACGACCAGATCACCTTGCGG
DNA 2: CCGCAAGGTGATCTGGTCGTACCAGATGAGTCGAAGT
- binding result (FadR K113 (W60G) [1]): no binding
- binding result (FadR WT [2]): binds

B3: fadL probe 1 (dsDNA)
DNA 1: GCAACATTCCAGCTGGTCCGACCTATACTCTCGCC
DNA 2: GGCGAGAGTATAGGTCGGACCAGCTGGAATGTTGC
- binding result (FadR K113 (W60G) [1]): no binding
- binding result (FadR WT [2]): binds

B4: fadL probe 2 (dsDNA)
DNA 1: CTCTCGCCACTGGTCTGATTTCTAAGATGTACCTC
DNA 2: GAGGTACATCTTAGAAATCAGACCAGTGGCGAGAG
- binding result (FadR K113 (W60G) [1]): no binding
- binding result (FadR WT [2]): binds

B5: fadD probe 1 (dsDNA)
DNA 1: GAAACAGCGGCTGGTCCGCTGTTTCTGCATTCT
DNA 2: AGAATGCAGAAACAGCGGACCAGCCGCTGTTTC
- binding result (FadR K113 (W60G) [1]): no binding
- binding result (FadR WT [2]): binds

B6: fadD probe 2 (dsDNA)
DNA 1: GTAATTATCAAGCTGGTATGATGAGTTAATATTATG
DNA 2: CATAATATTAACTCATCATACCAGCTTGATAATTAC
- binding result (FadR F74G/W75G): no binding
- binding result (FadR K113 (W60G) [3]): no binding
- binding result (FadR W75G): no binding
- binding result (FadR F74G): no binding
- binding result (FadR WT [4]): binds

B7: fabB probe (dsDNA)
DNA 1: TCTATTAAATGGCTGATCGGACTTGTTCGGCGTACAAGTGTACGCTATTGTGCATTC
DNA 2: GAATGCACAATAGCGTACACTTGTACGCCGAACAAGTCCGATCAGCCATTTAATAGA
- binding result (FadR K113 (W60G) [1]): no binding
- binding result (FadR WT [2]): binds
